{"source": "patent US20220356230A1", "about": "(published 2022)", "binders": {"B1": {"name": "mAb10913 (antibody, V domains shown)", "VH": "EVQLVESGGGLVQPGGSLRLSCAASGFTFRNYEMNWVRQAPGKGLEWVSYITSSGSTMYYADSVKGRFTISRDNAKNSLYLQMNSLRAEDTAVYYCARDGFYYYYAMDVWGQGTTVTVSS", "VL": "QSVLTQPPSVSAAPGQKVTISCSGSSSNIGNNYVSWYQQLPGTAPKLLIYDNNKRPSGIPDRFSGSKSGTSATLGITGLQTGDEADYYCGTWDSSLSVGRVFGTGTKVTVLG"}, "B2": {"name": "mAb10921 (antibody, V domains shown)", "VH": "EVQLVESGGGLVQPGGSLRLSCAASGITVSSNYMSWVRQAPGKGLEWVSVIYSGGSTFYADSVKGRFTISRHNSKNTLYLQMNSLRAEDTAVYYCARERNFDAFDIWGQGTMVTVSS", "VL": "DIQMTQSPSSVSASVGDRVTITCRASQGISSWLAWYQQKPGKAPKLLIYAASSLQSGVPSRFSGSGSGTDFTLTISSLQPEDFATYYCQQANSFPLFTFGPGTKVDIKR"}, "B3": {"name": "mAb10914 (antibody, V domains shown)", "VH": "EVQLVESGGGLVQPGGSLRLSCAASGLIVSRNYMIWVRQAPGKGLEWVSVIYSGGSTFYADSVKGRFTISRHNSKNTLYLQMNSLRAEDTAVYYCARDLGTGGMDVWGQGTTVTVSS", "VL": "DIQLTQSPSFLSASVGDRVTITCWASQGISSYLAWYQQKPGKAPKLLIYAASTLQSGVPSRFSGSGSGTEFTLTISSLQPEDFATYYCQQLNSYPLTFGGGTKVEIKR"}, "B4": {"name": "mAb10935 (antibody, V domains shown)", "VH": "EVQLVESGGGLVQPGGSLRLSCAASGFTVSSNYMSWVRQAPGKGLEWVSLIYSGGSTYYADSVKGRFTISRHNSKNTLYLQMNSLRSEDTAVYYCARVPLGDYYYGMDVWGQGTTVTVSS", "VL": "DIQMTQSPSSLSASVGDRVTITCQASQDINKYLNWYQQKPGKAPKLLIYDASNLETGVPSRFSGSGSGTDFTFTISSLQPEDIATYYCQQSDNLPLTFGGGTKVEIKR"}, "B5": {"name": "mAb10982 (antibody, V domains shown)", "VH": "EVQLVESGGGLVQPGGSLRLSCAASGLTVSSNYMSWVRQAPGKGLEWVSVIYSGGTTYYADSVKGRFTISRHNSKNTLSLQMNSLRAEDTAVYYCARGEGANYYGMDVWGQGTTVTVSS", "VL": "QSVLTQPPSVSGAPGQRVTISCTGSSSNIGTGYDVHWYQQLPGTAPKLLIYGNSNRPSGVPDRFSGSKSGTSASLAITGLQAEDEADYYCQSYDSSLSGYVVFGGGTKLTVLG"}, "B6": {"name": "mAb10971 (antibody, V domains shown)", "VH": "EVQLVESGGGLIQPGGSLRLSCAASGVTVSSNYMSWVRQAPGKGLEWVSVIYSGGSTFYSDSVKGRFSISRDNSKNTLYLQMNSLRAEDTAVYYCARDLYYYGMDVWGQGTTVTVSS", "VL": "DIQLTQSPSFLSASVGDRVTITCRASQGISTYLAWYQQKPGKAPKLLIYAASTLQSGVPSRFSGSGSGTEFTLTISSLQPEDFATYYCQQLDSYPGLTFGGGTKVEIKR"}, "B7": {"name": "mAb10969 (antibody, V domains shown)", "VH": "QVQLVESGGGVVQPGRSLRLSCAASGFTFSSYAMHWVRQAPGKGLEWVAVISYDGSNKYYADSVKGRFTISRDNSKNTLYLQMNSLRAEDTAVYYCARDGRTITMVRGVIDDAFDIWGQGTMVTVSS", "VL": "not shown"}, "B8": {"name": "mAb10964 (antibody, V domains shown)", "VH": "QVQLQESGPGLVKPSETLSLTCTVSGGSINNYYWIWIRQPPGKGLEWIGYIYHSGSTNYNPSLKSRVTISVDTSKNQFSLKVSSVTAADTAVYYCANMVRGVYEDDYWGQGTLVTVSS", "VL": "DIQMTQSPSSLSASVGDRVTITCRASQSISNYLNWYQQKPGKAPKLLIFAASSLRSGVPSRFSGSGSGTDFTLTISSLHPEDFATYYCQQNYNTPLTFGPGTKVDIKR"}, "B9": {"name": "mAb10957 (antibody, V domains shown)", "VH": "B6 VH with I12V, S60A, S68T, Y79F, A87I, Y100G, Y101P", "VL": "B6 VL with T31S, E70Q, T72I, D92N, L97F, G101P, E106D"}}, "note": "Positions count from the first letter of the chain named.", "data": [{"target": "T1, MERS-CoV (NCoV/Novel coronavirus) Spike Protein fragment (RBD, aa 367-606, His Tag) (Sino 40071-V08B1) (MERS-CoV, UniProt K9N5Q8 367-606)", "T1 sequence": "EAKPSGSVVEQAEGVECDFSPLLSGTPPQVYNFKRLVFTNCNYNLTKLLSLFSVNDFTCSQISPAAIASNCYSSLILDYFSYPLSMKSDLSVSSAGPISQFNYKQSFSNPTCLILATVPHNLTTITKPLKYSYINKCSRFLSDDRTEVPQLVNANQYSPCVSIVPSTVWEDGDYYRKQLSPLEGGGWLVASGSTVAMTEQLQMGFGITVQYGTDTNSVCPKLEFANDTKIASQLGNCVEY", "test": "Luminex bead assay, supernatant", "units": {"Binding signal (MFI)": "MFI"}, "values": [{"binder": "B1", "Binding signal (MFI)": 34}, {"binder": "B2", "Binding signal (MFI)": 23}, {"binder": "B3", "Binding signal (MFI)": 31}, {"binder": "B4", "Binding signal (MFI)": 25}, {"binder": "B5", "Binding signal (MFI)": 29}]}, {"target": "T2, MERS-CoV (NCoV/Novel coronavirus) Spike Protein S1 Protein (aa 1-725, His Tag) (Sino 40069-V08B1) (MERS-CoV, UniProt K9N5Q8 18-725)", "T2 sequence": "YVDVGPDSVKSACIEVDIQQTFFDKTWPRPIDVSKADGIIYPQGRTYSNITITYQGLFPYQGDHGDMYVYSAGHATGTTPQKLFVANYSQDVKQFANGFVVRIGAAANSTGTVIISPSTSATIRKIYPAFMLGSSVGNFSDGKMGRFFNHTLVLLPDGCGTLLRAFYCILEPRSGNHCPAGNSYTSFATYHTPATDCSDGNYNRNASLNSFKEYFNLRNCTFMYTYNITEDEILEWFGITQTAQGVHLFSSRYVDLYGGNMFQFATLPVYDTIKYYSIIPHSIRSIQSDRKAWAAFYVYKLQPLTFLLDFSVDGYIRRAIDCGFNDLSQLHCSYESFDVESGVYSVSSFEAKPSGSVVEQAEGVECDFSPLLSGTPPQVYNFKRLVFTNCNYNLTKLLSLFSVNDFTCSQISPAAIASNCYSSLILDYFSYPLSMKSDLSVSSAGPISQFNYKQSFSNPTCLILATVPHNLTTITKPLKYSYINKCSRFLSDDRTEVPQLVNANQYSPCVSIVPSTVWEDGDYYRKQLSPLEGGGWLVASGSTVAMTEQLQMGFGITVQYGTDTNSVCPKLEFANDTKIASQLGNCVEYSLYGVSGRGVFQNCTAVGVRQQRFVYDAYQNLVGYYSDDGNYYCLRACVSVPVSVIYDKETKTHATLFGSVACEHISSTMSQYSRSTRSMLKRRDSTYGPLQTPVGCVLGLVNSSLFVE", "test": "Luminex bead assay, supernatant", "units": {"Binding signal (MFI)": "MFI"}, "values": [{"binder": "B6", "Binding signal (MFI)": 19}, {"binder": "B7", "Binding signal (MFI)": 19}, {"binder": "B1", "Binding signal (MFI)": 26}, {"binder": "B8", "Binding signal (MFI)": 19}, {"binder": "B3", "Binding signal (MFI)": 23}, {"binder": "B9", "Binding signal (MFI)": 19}]}]}
